The record followed here is patent US8143366B2, “Aryl carbamate oligomers for hydrolyzable prodrugs and prodrugs comprising same” (priority 2003, dated 2012).

Structures are written as SMILES. Read-outs that look alike come from different tables or passages of the source.

Data set [1] in a line: Ex vivo hydrolysis in rat plasma at 37° C. It is filed as in vitro ADME. The settings on record: Table 2 conjugates, average of three experiments ± s. d. How it is done:
Experiments using rat plasma were conducted in similar fashion to the esterase hydrolysis experiments. A stock, or reference, solution of each conjugate was made that was ˜15 mg/mL in DMSO. Two hundred microliters of stock were added to 800 μL 50 mM PBS buffer. Fifty microliters of this latter solution were added to 950 μL rat plasma and placed at 37° C. in a reciprocal waterbath shaker. At the appropriate time intervals, a 50 μl, aliquot was taken, added to 100 μl, ACN, and vigorously vortexed for 1 minute. The sample was centrifuged at 10,000 rpm for 5 minutes and 50 μL, of supernatant was then injected for HPLC analysis. A calibration curve for measuring the concentration of each conjugate was made.

Data set [2] has as its target T1, rabbit liver carboxylesterase (Oryctolagus cuniculus, UniProt P12337). The experiment in a line: in vitro. The settings on record: purified rabbit liver carboxylesterase in PBS buffer, pH 7.4.
Experimental: (§1) Stock, or reference, solutions of hydrolyzable conjugates were first prepared at ˜2 mg/mL in DMSO. Working solutions of the hydrolyzable conjugates were then prepared in triplicate (working solutions A). Fifty microliters of stock conjugate were added to 5.0 mL 50 mM PBS buffer.
(§2) A stock solution of carboxylesterase was prepared by adding ˜2 mg esterase to 2.0 mL 50 mM PBS buffer. A working solution of carboxylesterase was prepared by diluting 50 uL of the stock solution with 5.0 mL 50 mM PBS buffer (working solution B).
(§3) Five hundred microliters of working solution B were then added to each working solution A (0.5 units enzyme and between 10-20 μM conjugate). The reaction mixtures were immediately vortexed and sampled for a time=0 analysis. The reaction solutions were incubated at 37° C. in a reciprocal waterbath shaker. At appropriate time intervals during incubation, 75 μL aliquots were taken and injected directly on HPLC for hydrolysis rate data. With each experiment, a new calibration curve for the particular conjugate was made.
(§4) The pseudo first-order rate constant, or “k”, is obtained from the slope of the natural log of the concentration of the conjugate versus time curve. The half-life is then calculated from k.
The target of data set [3] is T1, rabbit liver carboxylesterase. The settings on record: pH 7.4.
Experimental: as §1, §2, §3, §4

T1 sequence (P12337 19-565): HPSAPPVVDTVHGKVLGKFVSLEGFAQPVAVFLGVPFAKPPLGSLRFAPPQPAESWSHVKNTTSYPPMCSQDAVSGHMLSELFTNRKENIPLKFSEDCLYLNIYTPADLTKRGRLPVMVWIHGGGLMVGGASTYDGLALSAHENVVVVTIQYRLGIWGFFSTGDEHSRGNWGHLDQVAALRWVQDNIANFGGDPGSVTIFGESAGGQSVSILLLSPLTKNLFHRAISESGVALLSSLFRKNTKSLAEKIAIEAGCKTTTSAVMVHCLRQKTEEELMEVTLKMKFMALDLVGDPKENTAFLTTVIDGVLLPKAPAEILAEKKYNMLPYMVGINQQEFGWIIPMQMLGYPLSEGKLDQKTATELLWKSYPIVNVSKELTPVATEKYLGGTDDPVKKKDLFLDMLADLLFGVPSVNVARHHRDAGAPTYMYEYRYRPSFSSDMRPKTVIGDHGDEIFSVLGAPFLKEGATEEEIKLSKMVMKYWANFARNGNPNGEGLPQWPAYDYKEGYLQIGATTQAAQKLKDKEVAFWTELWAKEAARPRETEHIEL

The half-life is how long it takes for the measured level to halve. For the compound `COCCOCCOCCOCCNC(=O)c1ccc(OC(=O)N[C@@H](Cc2ccc(O)cc2)C(=O)NCC(=O)NCC(=O)N[C@@H](Cc2ccccc2)C(=O)N[C@@H](CC(C)C)C(=O)O)cc1`, the t1/2 result in data set [1] was “~Immediate Hydrolysis”. In addition, the half-life in data set [2] is 0.04 ± 0.17 h.

Take `COCCOCCOCCOCCOc1ccc(OC(=O)N[C@@H](Cc2ccc(O)cc2)C(=O)NCC(=O)NCC(=O)N[C@@H](Cc2ccccc2)C(=O)N[C@@H](CC(C)C)C(=O)O)cc1OCCOC`: the half-life in data set [1] was 0.354 ± 0.0667 h; in data set [3], 2.7 ± 0.2 h.

In turn, `COCCOCCOCCOCCOC(=O)NC(Cc1ccc(OC(=O)N[C@@H](Cc2ccc(O)cc2)C(=O)NCC(=O)NCC(=O)N[C@@H](Cc2ccccc2)C(=O)N[C@@H](CC(C)C)C(=O)O)cc1)C(=O)OC` (some centres unmarked) came in with a half-life at […] in data set [1] of 0.251 ± 0.0772 h. Further, the half-life in data set [2] was 1.3 ± 0.04 h.

In turn, `COCCOCCOCCOCCOc1ccc(OC(=O)N[C@@H](Cc2ccc(O)cc2)C(=O)NCC(=O)NCC(=O)N[C@@H](Cc2ccccc2)C(=O)N[C@@H](CC(C)C)C(=O)O)cc1` gave a half-life at […] in data set [1] of 0.912 ± 0.0723 h. For the same compound, the half-life in data set [2] is 6.9 ± 0.1 h.

In the case of `COCCOCCOCCOCCOCc1ccc(OC(=O)N[C@@H](Cc2ccc(O)cc2)C(=O)NCC(=O)NCC(=O)N[C@@H](Cc2ccccc2)C(=O)N[C@@H](CC(C)C)C(=O)O)cc1`, in data set [1], the half-life at […] is 0.027 ± 0.00733 h. This compound showed a half-life in data set [2] of 1.4 ± 0.1 h.

In data set [1], `CCCCCCCCCCCCOCCOCCOCCOCCOCCOCCOCCOCCOc1ccc(OC(=O)N[C@@H](Cc2ccc(O)cc2)C(=O)NCC(=O)NCC(=O)N[C@@H](Cc2ccccc2)C(=O)N[C@@H](CC(C)C)C(=O)O)cc1` displayed a half-life at […] of 2.33 ± 0.0723 h. For the same compound, in data set [2], the half-life is 10.4 ± 0.9 h.

Consider `COCCOCCOCCOCCNC(=O)c1cc(OC(=O)N[C@@H](Cc2ccc(O)cc2)C(=O)NCC(=O)NCC(=O)N[C@@H](Cc2ccccc2)C(=O)N[C@@H](CC(C)C)C(=O)O)cc(C(=O)NCCOCCOCCOCCOC)c1`, for which the t1/2 entry in data set [1] is “~Immediate Hydrolysis”. Further, the half-life in data set [2] is 0.03 ± 0.12 h.
